According to patent publication US20260207759A1, “COMPOSITION OF CD40-BINDING MOLECULE AND PHARMACEUTICAL USE THEREOF” (SUZHOU SUNCADIA BIOPHARMACEUTICALS CO., LTD., priority 2022, published 2026):

Experiments:
CD40 [1] = molecular target: T1, CD40 (Homo sapiens, UniProt P25942); experiment: FACS binding of human-rabbit chimeric anti-CD40 antibodies to Raji cells
Protocol: Raji cells are of a tumor cell line that overexpresses human CD40. 2E5 Raji cells were inoculated onto a 96-well plate. 100 μL of a test antibody was added, with the highest final concentration of 100 nM. The antibody was 5-fold diluted to 8 concentrations. The plate was incubated at 4° C. for 1 h. The plate was washed once with a washing buffer, and an AF647-conjugated anti-human IgG antibody (Jackson Immunoresearch Laborotories, Cat. #205-609-088) was added at a dilution ratio of 1:500. The plate was incubated at 4° C. for 30 min. The plate was washed once with the washing buffer, and fluorescence intensity was measured using a flow cytometer. The binding EC50 values of the anti-CD40 antibodies for CD40 were calculated. The anti-CD40 antagonistic antibody CFZ533 (i.e., iscalimab, Nova) was used as a positive control, and the heavy and light chain variable region sequences were derived from sequence 5 and sequence 2 of U.S. Pat. No. 8,277,810B, respectively.

[2] = mouse, in vivo, ip, 10 mg/kg
Protocol: After arrival, the animals were acclimatized for 7 days and randomly grouped. On day 0 of the experiment, each group of mice was intraperitoneally injected with the anti-CD40 antibody at 10 mg/kg. 100-150 μL of blood samples were collected at 15 min, 4 h, and 8 h after administration, and on days 1, 2, 4, 7, 10, and 14 after administration, anticoagulated with 10 μL of EDTA-K2 (0.1 M), and stored on ice. Mouse plasma was assayed by ELISA for antibody concentration at different time points. The assay is specifically as follows: A goat anti-human IgG Fc antibody (Rockland, Cat. #609-101-017) was diluted to 2.5 μg/mL with PBS and added to a 96-well plate at 50 μL/well, and the plate was incubated overnight at 4° C. After three washes with a washing buffer, 50 μL of blocking solution was added to each well, and the plate was incubated at 37° C. for 1 h. The mouse plasma and the standard curve of the test antibody were added, and the plate was incubated at 37° C. for 2 h. After three washes with the washing buffer, anti-hlgG Fab-HRP (Sigma, Cat. #A0293, 1:10,000) was added at 50 μL/well, and the plate was incubated at room temperature for 1 h. The plate was washed three times with the washing buffer. TMB was added at 100 μL/well, and the mixtures were left to react in the dark for 5 min. 0.16 M sulfuric acid was added at 100 μL/well. The OD value at 450 nm was measured with an Envision microplate reader, and the concentrations of CD40 antagonistic antibodies were calculated.

CD40 [3] = molecular target: T1, CD40; experiment: Reporter gene cell activity of chimeric anti-CD40 antibodies (HEK-Blue CD40L cells, CD40L-induced SEAP); assay type: cell-based; parameters: host or cells: HEK-Blue CD40L cells; conditions: CD40L-stimulated HEK-Blue CD40L cells
Protocol: HEK-Blue CD40L cells were purchased from Invivogen (Cat. #hkb-cd40). The cells were stably transfected with the human CD40 gene and the NF-kB-mediated SEAP genome. The activation level of the CD40 signaling pathway can be characterized by detecting the secreted SEAP in the supernatant using QUANTI-Blue, the substrate of SEAP. In this experiment, the in vitro antagonist activity of anti-CD40 antibodies was assessed according to IC50 by detecting the activation of HEK-Blue CD40L cells by CD40L. HEK-Blue CD40L cells were cultured in a DMEM medium containing 10% FBS, 100 μg/mL Zeocin, and 30 μg/mL Blasticidin, and passaged 2-3 times in a week at a ratio of 1:5 or 1:10. During passaging, the medium was pipetted off, and the cell layer was rinsed with 5 mL of 0.25% pancreatin. Then the pancreatin was pipetted off, the cells were digested in an incubator for 3-5 min, and then a fresh medium was added to resuspend cells. 100 μL of cell suspension was added to a 96-well cell culture plate at a density of 5×10^5 cells/mL. The medium was DMEM containing 10% FBS, 100 μg/mL Zeocin, and 30 μg/mL Blasticidin. Only 100 μL of sterile water was added to the peripheral wells of the 96-well plate. […] The absorbance at 630 nm was measured with a microplate reader (Thermo MultiSkanFc), and IC50 values were calculated and used to assess the in vitro cell activity of the anti-CD40 antibodies.

CD40 [4] = molecular target: T1, CD40; experiment: DC cell activation assay system (monocyte-derived DC, CD40L-induced CD80/CD86, IL-12/23 p40, TNFα); assay type: cell-based; parameters: endogenous in cells; host or cells: human PBMCs (B cells); DCs differentiated from human CD14+ monocytes
Text: CD40 is highly expressed on dendritic cells (DCs), and CD40L, upon binding to CD40, can induce DC activation, up-regulate the expression of multiple activation markers on the DC cell surface, and promote the secretion of multiple inflammatory factors from DCs, further amplifying immune responses. CD40 antagonistic antibodies block the binding of CD40L to CD40, thereby eliminating the immune activation process of DC cells.
Monocytes were sorted and enriched from fresh primary human peripheral blood PBMCs using the EsaySep™ human CD14 sorting kit (Stemcell, 19359), and differentiated for 6 days with RPMI-1640 medium (10% FBS and 1% penicillin-streptomycin), 50 ng/ml IL-4 (PeproTech, 200-04), and 50 ng/mL GM-CSF (PeproTech, 300-03). On day 7, the differentiated DC cells were plated at 1E5/well into a 96-well cell culture plate. Serially diluted test antibodies were added to the wells, and the cells were co-incubated at 37° C. in 5% CO2 for 0.5 h. CD40L-his and an anti-His antibody were then added to each well at final concentrations. After 48 h of culture, the level of DC cell activation was measured by flow cytometry: after centrifugation, the supernatant was removed, and the cells were washed twice with FACS buffer (PBS+2% FBS) and stained at room temperature for 15 min with 100 μL of Fixable viability dye EF780 (Invitrogen, 65086514) diluted at 1:1000. The cells were washed twice and then blocked at room temperature for 10 min with 100 μL of human Fc blocker (BD, 564220) diluted at 1:200. After centrifugation, the cells were incubated at 4° C. for 0.5 h with flow cytometry antibodies (Alexa Fluor® 700 anti-human CD11c (Biolegend, 337220), Brilliant Violet 421™ anti-human CD80 (Biolegend, 305221), and APC anti-human CD86 (Biolegend, 305412)) diluted at 1:200. After centrifugation, the supernatant was removed, the cells were washed twice with FACS buffer and then resuspended in 200 μL of PBS, and the fluorescence intensity on the cell surface was measured by a flow cytometer (BD FACS Celesta).
In addition, the level of cytokine secretion in the supernatant was measured after 24 h (TNFα, Cisbio, 62[…]) and 48 h (IL-12/23 p40, Novus, VAL121) of culture.
With reference to the method in Example 11, the inhibitory activity of the anti-CD40 antibody 9E6-L4H2-AAYTE carrying the AAYTE mutation in the Fc in the DC cell activation assay system was measured.

T1 sequence (P25942 21-277): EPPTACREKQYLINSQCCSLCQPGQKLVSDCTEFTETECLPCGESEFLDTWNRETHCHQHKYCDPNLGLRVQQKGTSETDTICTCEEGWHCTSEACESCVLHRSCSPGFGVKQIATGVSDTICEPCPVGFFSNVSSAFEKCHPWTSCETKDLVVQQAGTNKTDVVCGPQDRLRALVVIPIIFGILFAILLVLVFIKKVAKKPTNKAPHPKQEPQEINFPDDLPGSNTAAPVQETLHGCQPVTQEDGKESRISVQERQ

CFZ533: anti-CD40 antagonistic antibody CFZ533 (i.e., iscalimab), positive control, variable regions from U.S. Pat. No. 8,277,810B
EC50 (CD40 [1]): 2.41 nM
AUC(0-d14)((h) * (mg/L)) [2]: 12655 (h) * (mg/L)
C max [2]: 75.95 µg/mL
T1/2 [2]: 214.8 h
IC50 (CD40 [3]): 0.272 nM
IC50 (CD40 [4]; 48 h, read-out: IC50 (nM) in DC cell activation assay system, CD80 MFI): 1.19 nM
IC50 (CD40 [4]; 48 h, read-out: IC50 (nM) in DC cell activation assay system, CD86 MFI): 1.93 nM
IC50 (CD40 [4]; supernatant, 24 h, read-out: IC50 (nM) in DC cell activation assay system, TNFα): 0.35 nM
IC50 (CD40 [4]; supernatant, 48 h, read-out: IC50 (nM) in DC cell activation assay system, IL-12/23 p40): 0.68 nM
